Values of other authors, collected in US20250346885A1, “SYSTEMS AND METHODS FOR TARGETED CONTINUOUS GENOME MUTAGENESIS” (The Broad Institute, Inc., priority 2023, published 2025).

System: double-stranded DNA
Conditions: average base pairs unwound in a single binding event; cited from earlier work

Row | Molecule | processivity range
1 | Rep: helicase with short-range processivity (protein, UniProt P09980 1-673, looked up) ATP-dependent DNA helicase Rep: MRLNPGQQQAVEFVTGPCLVLAGAGSGKTRVITNKIAHLIRGCGYQARHIAAVTFTNKAAREMKERVGQTLGRKEARGLMISTFHTLGLDIIKREYAALGMKANFSLFDDTDQLALLKELTEGLIEDDKVLLQQLISTISNWKNDLKTPSQAAASAIGERDRIFAHCYGLYDAHLKACNVLDFDDLILLPTLLLQRNEEVRKRWQNKIRYLLVDEYQDTNTSQYELVKLLVGSRARFTVVGDDDQSIYSWRGARPQNLVLLSQDFPALKVIKLEQNYRSSGRILKAANILIANNPHVFEKRLFSELGYGAELKVLSANNEEHEAERVTGELIAHHFVNKTQYKDYAILYRGNHQSRVFEKFLMQNRIPYKISGGTSFFSRPEIKDLLAYLRVLTNPDDDSAFLRIVNTPKREIGPATLKKLGEWAMTRNKSMFTASFDMGLSQTLSGRGYEALTRFTHWLAEIQRLAEREPIAAVRDLIHGMDYESWLYETSPSPKAAEMRMKNVNQLFSWMTEMLEGSELDEPMTLTQVVTRFTLRDMMERGESEEELDQVQLMTLHASKGLEFPYVYMVGMEEGFLPHQSSIDEDNIDEERRLAYVGITRAQKELTFTLCKERRQYGELVRPEPSRFLLELPQDDLIWEQERKVVSAEERMQKGQSHLANLKAMMAAKRGK | 30-50 base pairs
2 | UvrD: E. coli helicase (protein, UniProt P03018 1-720, looked up) DNA helicase II: MDVSYLLDSLNDKQREAVAAPRSNLLVLAGAGSGKTRVLVHRIAWLMSVENCSPYSIMAVTFTNKAAAEMRHRIGQLMGTSQGGMWVGTFHGLAHRLLRAHHMDANLPQDFQILDSEDQLRLLKRLIKAMNLDEKQWPPRQAMWYINSQKDEGLRPHHIQSYGNPVEQTWQKVYQAYQEACDRAGLVDFAELLLRAHELWLNKPHILQHYRERFTNILVDEFQDTNNIQYAWIRLLAGDTGKVMIVGDDDQSIYGWRGAQVENIQRFLNDFPGAETIRLEQNYRSTSNILSAANALIENNNGRLGKKLWTDGADGEPISLYCAFNELDEARFVVNRIKTWQDNGGALAECAILYRSNAQSRVLEEALLQASMPYRIYGGMRFFERQEIKDALSYLRLIANRNDDAAFERVVNTPTRGIGDRTLDVVRQTSRDRQLTLWQACRELLQEKALAGRAASALQRFMELIDALAQETADMPLHVQTDRVIKDSGLRTMYEQEKGEKGQTRIENLEELVTATRQFSYNEEDEDLMPLQAFLSHAALEAGEGQADTWQDAVQLMTLHSAKGLEFPQVFIVGMEEGMFPSQMSLDEGGRLEEERRLAYVGVTRAMQKLTLTYAETRRLYGKEVYHRPSRFIGELPEECVEEVRLRATVSRPVSHQRMGTPMVENDSGYKLGQRVRHAKFGEGTIVNMEGSGEHSRLQVAFQGQGIKWLVAAYARLESV | 30-40 base pairs
3 | TraI: E. coli helicase (protein) MAKIHMVLQGKGGVGKSAIAAIIAQYKMDKGQTPLCIDTDPVNATFEGYKALNVRRLNIMAGDEINSRNFDTLVELIAPTKDDVVIDNGASSFVPLSHYLISNQVPALLQEMGHELVIHTVVTGGQALLDTVSGFAQLASQFPAEALFVVWLNPYWGPIEHEGKSFEQMKAYTANKARVSSIIQIPALKEETYGRDFSDMLQERLTFDQALADESLTIMTRQRLKIVRRGLFEQLDAAAVL | at least 850 base pairs
